This note sets out measurements from article PMC11372834.

This test deals with human RXFP1 (human) (UniProt Q9HBX9).
Sequence of UniProt Q9HBX9 (Q9HBX9 whole entry): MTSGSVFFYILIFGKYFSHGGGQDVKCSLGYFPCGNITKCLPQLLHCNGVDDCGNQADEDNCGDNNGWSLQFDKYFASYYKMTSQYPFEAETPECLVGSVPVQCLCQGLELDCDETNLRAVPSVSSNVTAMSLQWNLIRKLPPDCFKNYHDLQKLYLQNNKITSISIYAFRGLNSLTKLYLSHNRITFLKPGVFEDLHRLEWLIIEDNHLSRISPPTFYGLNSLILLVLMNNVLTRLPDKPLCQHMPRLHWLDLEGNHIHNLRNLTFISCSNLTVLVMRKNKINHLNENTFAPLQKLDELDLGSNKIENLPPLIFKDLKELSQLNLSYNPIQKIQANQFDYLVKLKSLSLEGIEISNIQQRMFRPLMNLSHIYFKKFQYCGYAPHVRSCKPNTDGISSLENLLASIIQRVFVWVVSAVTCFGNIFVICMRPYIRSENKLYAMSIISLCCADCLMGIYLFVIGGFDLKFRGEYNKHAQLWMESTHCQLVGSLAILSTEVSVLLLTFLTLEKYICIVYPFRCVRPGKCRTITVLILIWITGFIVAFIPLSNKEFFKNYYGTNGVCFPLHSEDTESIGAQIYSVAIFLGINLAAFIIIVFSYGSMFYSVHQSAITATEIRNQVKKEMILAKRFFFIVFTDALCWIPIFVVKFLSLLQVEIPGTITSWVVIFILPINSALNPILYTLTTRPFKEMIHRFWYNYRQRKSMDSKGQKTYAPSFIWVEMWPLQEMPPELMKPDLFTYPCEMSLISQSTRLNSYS

For the substance native relaxin-2 (ligand), the EC50, Gs signaling (CRE-SEAP, Figure 1c and Table S1) was 0.1 nM.
